{"source": "paper PMC2115152", "assay_in_all_cases": "co-sedimentation", "key": {"[1]": {"biological_target": "F-actin first mixed with low mol wt TMs (rabbit | rat) (UniProt P68135)"}, "[2]": {"biological_target": "F-actin first mixed with high mol wt TMs (rabbit | rat) (UniProt P68135)"}, "[3]": {"biological_target": "F-actin with 83-kD protein (rabbit | rat) (UniProt P68135)"}, "F-actin (rabbit)": {"biological_target": "F-actin (rabbit) (UniProt P68135)"}}, "note": "Where “and” joins values, the source holds several entries; their conditions need not be identical. Equal values may be shown once.", "data": [{"substance": "83-kD nonmuscle caldesmon (from UniProt Q62736 1-531) (natural protein)", "values": [{"measurement": "stoichiometry N (actin per 83-kD protein)", "setting": "[1]", "result": 6}, {"measurement": "stoichiometry N (actin per 83-kD protein)", "setting": "[2]", "result": 6}]}, {"substance": "high mol wt TMs (a mixture of TM-1 [40,000] and TM-2 [36,500])", "values": [{"measurement": "fold increase of TM binding to actin against no 83-kD protein (50 mM KCl)", "setting": "[3]", "result": 10, "unit": "fold"}, {"measurement": "percent of the TM mass bound to actin (50 mM KCl, no 83-kD protein)", "setting": "F-actin (rabbit)", "result": "< 10", "unit": "%"}, {"measurement": "percent of the TMs bound to actin (50 mM KCl, no 83-kD protein)", "setting": "F-actin (rabbit)", "result": 10, "unit": "%"}]}, {"substance": "low mol wt TMs (a mixture of TM-4 [32,400] and TM-5 [32,000])", "values": [{"measurement": "Ka", "setting": "[3]", "result": "1.5e+06", "unit": "M⁻¹"}, {"measurement": "molar ratio of TMs to sedimentable actin (0.06 mg/ml TMs, 83-kD protein added)", "setting": "[3]", "result": 14, "unit": "actin per TM"}, {"measurement": "Ka", "setting": "F-actin (rabbit)", "result": 440000, "unit": "M⁻¹"}, {"measurement": "TM bound to actin (0.12 mg/ml TMs, no 83-kD protein)", "setting": "F-actin (rabbit)", "result": 0.4, "unit": "µmol"}, {"measurement": "molar ratio of TMs to sedimentable actin (0.06 mg/ml TMs, no 83-kD protein)", "setting": "F-actin (rabbit)", "result": 157, "unit": "actin per TM"}, {"measurement": "molar ratio of TMs to sedimentable actin (0.12 mg/ml TMs, no 83-kD protein)", "setting": "F-actin (rabbit)", "result": 29, "unit": "actin per TM"}, {"measurement": "percent of actin saturated with TMs (0.06 mg/ml TMs, no 83-kD protein)", "setting": "F-actin (rabbit)", "result": "3% and 4%"}, {"measurement": "percent of actin saturated with TMs (0.12 mg/ml TMs, no 83-kD protein)", "setting": "F-actin (rabbit)", "result": 20, "unit": "%"}, {"measurement": "percent of the TM mass bound to actin (0.06 mg/ml TMs, no 83-kD protein)", "setting": "F-actin (rabbit)", "result": "5% and 7%"}, {"measurement": "stoichiometry N", "setting": "F-actin (rabbit)", "result": 6, "unit": "actin per TM"}]}]}
